# From patent US20240066131A1 (Protagonist Therapeutics, Inc., priority 2020, published 2024)
# Starred links: 1 amine or outer side, 2 acyl side, 3 side chain; linkers in the order of their positions; H or OH if unused. Positions of bridges follow the written chain, without caps; N, C: chain ends. Non-standard residues stand in square brackets, D forms with d. Groups on a side chain read outwards from the residue. Primed or numbered codes have the meaning given here. *: point of attachment. N‑(CH2CH2C(Ph)2H)Gly = N-substituted glycine carrying a 3,3-diphenylpropyl group, O=C(CN(CCC(c1ccccc1)c1ccccc1)[*:1])[*:2]; ButanoicP = (R)-4-(pyrrolidin-2-yl)butanoic acid, O=C(CCC[C@@H]1CCCN1[*:1])[*:2]; Ala(1H-tetrazol-5-yl) = N[C@@H](Cc1nnn[nH]1)C(=O)O; Dip = N[C@H](C(=O)O)C(c1ccccc1)c1ccccc1; His(τ-Me) = Cn1cnc(C[C@H](N)C(=O)O)c1; N(isopentyl)Gly′ = not defined here; Palmitoyl = CCCCCCCCCCCCCCCC(=O)*; β3hF = N[C@H](CC(=O)O)Cc1ccccc1; NMeK = CN[C@@H](CCCCN)C(=O)O; PEG4 = NCCOCCOCCOCCOCCC(=O)O; Isovaleryl = CC(C)CC(=O)*; IDA = iminodiacetic acid; Ahx = NCCCCCC(=O)O
# T1: human ferroportin (SLC40A1) fused in frame with GFP, stably expressed in HEK293 cells (human, UniProt Q9NP59 1-571)
# T1 sequence (looked up): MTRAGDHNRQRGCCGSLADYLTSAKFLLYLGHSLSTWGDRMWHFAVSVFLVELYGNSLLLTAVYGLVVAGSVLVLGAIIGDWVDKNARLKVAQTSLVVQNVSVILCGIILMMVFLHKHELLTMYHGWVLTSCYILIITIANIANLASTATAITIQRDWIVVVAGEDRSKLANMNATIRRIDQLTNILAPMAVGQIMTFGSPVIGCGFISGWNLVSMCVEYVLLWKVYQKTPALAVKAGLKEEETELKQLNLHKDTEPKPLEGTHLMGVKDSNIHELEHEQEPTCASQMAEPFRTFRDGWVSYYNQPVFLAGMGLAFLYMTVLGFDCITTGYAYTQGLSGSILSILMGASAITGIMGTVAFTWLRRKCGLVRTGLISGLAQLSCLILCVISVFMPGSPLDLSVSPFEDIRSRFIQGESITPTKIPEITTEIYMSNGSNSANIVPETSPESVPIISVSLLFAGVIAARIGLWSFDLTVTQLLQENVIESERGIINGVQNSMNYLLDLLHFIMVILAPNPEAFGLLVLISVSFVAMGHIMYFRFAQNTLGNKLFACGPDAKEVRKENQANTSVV
# B1: Isovaleric Acid-L-T-H-[Dpa]-P-A-I-[(N-Me)Lys]-[bhPhe]-[Lys(Ahx_Palm)]-NH2 (peptide)
# peptide: Isovaleryl-LTH[Dip]PAI[NMeK][β3hF]K([Ahx-Palmitoyl])-NH2
# SMILES: CCCCCCCCCCCCCCCC(=O)NCCCCCC(=O)NCCCC[C@H](NC(=O)C[C@H](Cc1ccccc1)NC(=O)[C@H](CCCCN)N(C)C(=O)[C@@H](NC(=O)[C@H](C)NC(=O)[C@@H]1CCCN1C(=O)[C@@H](NC(=O)[C@H](Cc1c[nH]cn1)NC(=O)[C@@H](NC(=O)[C@H](CC(C)C)NC(=O)CC(C)C)[C@@H](C)O)C(c1ccccc1)c1ccccc1)[C@@H](C)CC)C(N)=O
# B2: Isovaleric Acid-[Tet1]-T-[(1Me)His]-[Dpa]-P-A-I-[Lys(Ahx_Palm)]-[bhPhe]-NH2 (peptide)
# peptide: Isovaleryl-[Ala(1H-tetrazol-5-yl)]T[His(τ-Me)][Dip]PAIK([Ahx-Palmitoyl])[β3hF]-NH2
# SMILES: CCCCCCCCCCCCCCCC(=O)NCCCCCC(=O)NCCCC[C@H](NC(=O)[C@@H](NC(=O)[C@H](C)NC(=O)[C@@H]1CCCN1C(=O)[C@@H](NC(=O)[C@H](Cc1cn(C)cn1)NC(=O)[C@@H](NC(=O)[C@H](Cc1nnn[nH]1)NC(=O)CC(C)C)[C@@H](C)O)C(c1ccccc1)c1ccccc1)[C@@H](C)CC)C(=O)N[C@H](CC(N)=O)Cc1ccccc1
# B3: Isovaleric Acid-K-T-H-[Dpa]-P-A-I-[Lys(Ahx_Palm)]-[bhPhe]-E-NH2; (K and E cyclized) (peptide)
# peptide: Isovaleryl-KTH[Dip]PAIK([Ahx-Palmitoyl])[β3hF]E-NH2
# modifications: lactam 1-10
# SMILES: CCCCCCCCCCCCCCCC(=O)NCCCCCC(=O)NCCCC[C@@H]1NC(=O)[C@H]([C@@H](C)CC)NC(=O)[C@H](C)NC(=O)[C@@H]2CCCN2C(=O)[C@H](C(c2ccccc2)c2ccccc2)NC(=O)[C@H](Cc2c[nH]cn2)NC(=O)[C@H]([C@@H](C)O)NC(=O)[C@@H](NC(=O)CC(C)C)CCCCNC(=O)CC[C@@H](C(N)=O)NC(=O)C[C@H](Cc2ccccc2)NC1=O
# B4: Isovaleric Acid-A-T-H-[Dpa]-P-E-I-[(D)Lys]-[bhPhe]-[Lys(Ahx_Palm)]-R-NH2; (E and (D)Lys cyclized) (peptide)
# peptide: Isovaleryl-ATH[Dip]PEI[dK][β3hF]K([Ahx-Palmitoyl])R-NH2
# modifications: lactam 6-8
# SMILES: CCCCCCCCCCCCCCCC(=O)NCCCCCC(=O)NCCCC[C@H](NC(=O)C[C@H](Cc1ccccc1)NC(=O)[C@H]1CCCCNC(=O)CC[C@H](NC(=O)[C@@H]2CCCN2C(=O)[C@@H](NC(=O)[C@H](Cc2c[nH]cn2)NC(=O)[C@@H](NC(=O)[C@H](C)NC(=O)CC(C)C)[C@@H](C)O)C(c2ccccc2)c2ccccc2)C(=O)N[C@@H]([C@@H](C)CC)C(=O)N1)C(=O)N[C@@H](CCCNC(=N)N)C(N)=O
# B5: Isovaleric Acid-A-T-H-[Dpa]-P-K-I-E-[bhPhe]-[Lys(Ahx_Palm)]-R-NH2; (K and E cyclized) (peptide)
# peptide: Isovaleryl-ATH[Dip]PKIE[β3hF]K([Ahx-Palmitoyl])R-NH2
# modifications: lactam 6-8
# SMILES: CCCCCCCCCCCCCCCC(=O)NCCCCCC(=O)NCCCC[C@H](NC(=O)C[C@H](Cc1ccccc1)NC(=O)[C@@H]1CCC(=O)NCCCC[C@H](NC(=O)[C@@H]2CCCN2C(=O)[C@@H](NC(=O)[C@H](Cc2c[nH]cn2)NC(=O)[C@@H](NC(=O)[C@H](C)NC(=O)CC(C)C)[C@@H](C)O)C(c2ccccc2)c2ccccc2)C(=O)N[C@@H]([C@@H](C)CC)C(=O)N1)C(=O)N[C@@H](CCCNC(=N)N)C(N)=O
# B6: Isovaleric Acid-A-T-H-E-P-K-I-[Lys(Ahx_Palm)]-[bhPhe]-R-NH2; (E and K cyclized) (peptide)
# peptide: Isovaleryl-ATHEPKIK([Ahx-Palmitoyl])[β3hF]R-NH2
# modifications: lactam 4-6
# SMILES: CCCCCCCCCCCCCCCC(=O)NCCCCCC(=O)NCCCC[C@H](NC(=O)[C@@H](NC(=O)[C@@H]1CCCCNC(=O)CC[C@H](NC(=O)[C@H](Cc2c[nH]cn2)NC(=O)[C@@H](NC(=O)[C@H](C)NC(=O)CC(C)C)[C@@H](C)O)C(=O)N2CCC[C@H]2C(=O)N1)[C@@H](C)CC)C(=O)N[C@H](CC(=O)N[C@@H](CCCNC(=N)N)C(N)=O)Cc1ccccc1
# B7: Isovaleric Acid-A-T-H-K-P-E-I-[Lys(Ahx_Palm)]-[bhPhe]-R-NH2; (K and E cyclized) (peptide)
# peptide: Isovaleryl-ATHKPEIK([Ahx-Palmitoyl])[β3hF]R-NH2
# modifications: lactam 4-6
# SMILES: CCCCCCCCCCCCCCCC(=O)NCCCCCC(=O)NCCCC[C@H](NC(=O)[C@@H](NC(=O)[C@@H]1CCC(=O)NCCCC[C@H](NC(=O)[C@H](Cc2c[nH]cn2)NC(=O)[C@@H](NC(=O)[C@H](C)NC(=O)CC(C)C)[C@@H](C)O)C(=O)N2CCC[C@H]2C(=O)N1)[C@@H](C)CC)C(=O)N[C@H](CC(=O)N[C@@H](CCCNC(=N)N)C(N)=O)Cc1ccccc1
# B8: Isovaleric Acid-E-T-H-[Dpa]-P-A-I-[(D)Lys]-[bhPhe]-[Lys(Ahx_Palm)]-[(D)Lys]-NH2 (peptide)
# peptide: Isovaleryl-ETH[Dip]PAI[dK][β3hF]K([Ahx-Palmitoyl])[dK]-NH2
# SMILES: CCCCCCCCCCCCCCCC(=O)NCCCCCC(=O)NCCCC[C@H](NC(=O)C[C@H](Cc1ccccc1)NC(=O)[C@@H](CCCCN)NC(=O)[C@@H](NC(=O)[C@H](C)NC(=O)[C@@H]1CCCN1C(=O)[C@@H](NC(=O)[C@H](Cc1c[nH]cn1)NC(=O)[C@@H](NC(=O)[C@H](CCC(=O)O)NC(=O)CC(C)C)[C@@H](C)O)C(c1ccccc1)c1ccccc1)[C@@H](C)CC)C(=O)N[C@H](CCCCN)C(N)=O
# B9: Isovaleric Acid-E-T-H-[Dpa]-P-A-I-[Lys(2PEG4_Palm)]-[bhPhe]-NH2 (peptide)
# peptide: Isovaleryl-ETH[Dip]PAIK([PEG4-Palmitoyl])[β3hF]-NH2
# SMILES: CCCCCCCCCCCCCCCC(=O)NCCOCCOCCOCCOCCC(=O)NCCCC[C@H](NC(=O)[C@@H](NC(=O)[C@H](C)NC(=O)[C@@H]1CCCN1C(=O)[C@@H](NC(=O)[C@H](Cc1c[nH]cn1)NC(=O)[C@@H](NC(=O)[C@H](CCC(=O)O)NC(=O)CC(C)C)[C@@H](C)O)C(c1ccccc1)c1ccccc1)[C@@H](C)CC)C(=O)N[C@H](CC(N)=O)Cc1ccccc1
# Target: T1, human ferroportin (SLC40A1) fused in …
# Assay: cell-based or functional assay
row,Binder,FPN EC50
1,B1,103 nM
2,Isovaleryl-LT[His(τ-Me)][Dip]PAI[NMeK][β3hF]K([Ahx-Palmitoyl])-NH2 [Isovaleric Acid-L-T-[(1Me)His]-[Dpa]-P-A-I-[(N-Me)Lys)]-[bhPhe]-[Lys(Ahx_Palm)]-NH2],95.9 nM
3,B2,63.1 nM
4,Isovaleryl-ETH[Dip]PKIK([Ahx-Palmitoyl])[β3hF][dK]-NH2 (lactam 1-6 (inferred)) [Isovaleric Acid-E-T-H-[Dpa]-P-K-I-[Lys(Ahx_Palm)]-[bhPhe]-[(D)Lys]-NH2; (E and K cyclized)],122 nM
5,B3,184 nM
6,B4,61.2 nM
7,B5,90.7 nM
8,B6,> 3000 nM
9,B7,> 3000 nM
10,B8,45.5 nM
11,Gallic_Acid-ETH[Dip]PIIK(Ac)[β3hF]-NH2 [[Gallic_Acid]-E-T-H-[Dpa]-P-I-I-[Lys(Ac)]-[bhPhe]-NH2],> 3000 nM
12,Succinic_Acid-ETH[Dip]PIIK(Ac)[β3hF]-NH2 [[Succinic_Acid]-E-T-H-[Dpa]-P-I-I-[Lys(Ac)]-[bhPhe]-NH2],> 3000 nM
13,Glutaric_Acid-ETH[Dip]PIIK(Ac)[β3hF]-NH2 [[Glutaric_Acid]-E-T-H-[Dpa]-P-I-I-[Lys(Ac)]-[bhPhe]-NH2],> 3000 nM
14,Pimelic_Acid-ETH[Dip]PIIK(Ac)[β3hF]-NH2 [[Pimelic_Acid]-E-T-H-[Dpa]-P-I-I-[Lys(Ac)]-[bhPhe]-NH2],> 5000 nM
15,{IDA}-ETH[Dip]PIIK(Ac)[β3hF]-NH2 [[IDA]-E-T-H-[Dpa]-P-I-I-[Lys(Ac)]-[bhPhe]-NH2],> 5000 nM
16,{Isophthalic Acid}-ETH[Dip]PIIK(Ac)[β3hF]-NH2 [[Isophthalic Acid]-E-T-H-[Dpa]-P-I-I-[Lys(Ac)]-[bhPhe]-NH2],> 5000 nM
17,"{3,3,3‑Trifluoro propionic acid}-ETH[Dip]PIIK(Ac)[β3hF]-NH2 [[3,3,3-Trifluoro propionic acid]-E-T-H-[Dpa]-P-I-I-[Lys(Ac)]-[bhPhe]-NH2]",5740 nM
18,{(3-Trifluoromethyl)butyric acid}-ETH[Dip]PIIK(Ac)[β3hF]-NH2 [[(3-Trifluoromethyl)butyric acid]-E-T-H-[Dpa]-P-I-I-[Lys(Ac)]-[bhPhe]-NH2],2080 nM
19,Isovaleryl-[dE]TH[Dip]PIIK(Ac)[β3hF]-NH2 [Isovaleric Acid-[(D)Glu]-T-H-[Dpa]-P-I-I-[Lys(Ac)]-[bhPhe]-NH2],1450 nM
20,Isovaleryl-ETH[Dip][ButanoicP]K([Ahx-Palmitoyl])[β3hF]-NH2 [Isovaleric Acid-E-T-H-[Dpa]-[ButanoicP]-[Lys(Ahx_Palm)]-[bhPhe]-NH2],20.5 nM
21,Isovaleryl-[N‑(CH2CH2CH2CO2H)Gly]TH[Dip]PAIK([Ahx-Palmitoyl])[β3hF]-NH2 [Isovaleric Acid-[N-(CH2CH2CH2CO2H)Gly]-T-H-[Dpa]-P-A-I-[Lys(Ahx_Palm)]-[bhPhe]-NH2],202 nM
22,Isovaleryl-E[N‑(CH2CH2OH)Gly]H[Dip]PAIK([Ahx-Palmitoyl])[β3hF]-NH2 [Isovaleric Acid-E-[N-(CH2CH2OH)Gly]-H-[Dpa]-P-A-I-[Lys(Ahx_Palm)]-[bhPhe]-NH2],2230 nM
23,Isovaleryl-ET[N‑(CH2CH2-imidazol4-yl)Gly][Dip]PAIK([Ahx-Palmitoyl])[β3hF]-NH2 [Isovaleric Acid-E-T-[N-(CH2CH2-imidazol4-yl)Gly]-[Dpa]-P-A-I-[Lys(Ahx_Palm)]-[bhPhe]-NH2],> 3000 nM
24,Isovaleryl-ETH[N‑(CH2CH2C(Ph)2H)Gly]PAIK([Ahx-Palmitoyl])[β3hF]-NH2 [Isovaleric Acid-E-T-H-[N-(CH2CH2C(Ph)2H)Gly]-P-A-I-[Lys(Ahx_Palm)]-[bhPhe]-NH2],> 3000 nM
25,Isovaleryl-ETH[Dip]P[N(Et)Gly]IK([Ahx-Palmitoyl])[β3hF]-NH2 [Isovaleric Acid-E-T-H-[Dpa]-P-[N-(Et)Gly]-I-[Lys(Ahx_Palm)]-[bhPhe]-NH2],65.9 nM
26,Isovaleryl-ETH[Dip]PA[N(isopentyl)Gly′]K([Ahx-Palmitoyl])[β3hF]-NH2 [Isovaleric Acid-E-T-H-[Dpa]-P-A-[N-(isopenty1)Gly]-[Lys(Ahx_Palm)]-[bhPhe]-NH2],13 nM
27,Isovaleryl-ETH[Dip]PAIK([Ahx-Palmitoyl])[N‑(CH2CH2Ph)Gly]-NH2 [Isovaleric Acid-E-T-H-[Dpa]-P-A-I-[Lys(Ahx_Palm)]-[N-(CH2CH2Ph)Gly]-NH2],31.9 nM
28,B9,32.7 nM
